In assay [1] the target is OG488-EGR labeled Gla-domainless factor IXa (GD-FIXa) (human) (UniProt P00740). The assay is described as follows: fluorescence polarisation.
Assay [2] deals with OG488-EGR labeled wild-type factor IXa (human) (UniProt P00740). As to the kind of experiment: fluorescence polarisation. A general note: In fluorescence polarisation assays a small probe gives low polarisation when free and higher when bound to something large.

UniProt P00740, sequence (P00740 47-191, chain 1 of 2): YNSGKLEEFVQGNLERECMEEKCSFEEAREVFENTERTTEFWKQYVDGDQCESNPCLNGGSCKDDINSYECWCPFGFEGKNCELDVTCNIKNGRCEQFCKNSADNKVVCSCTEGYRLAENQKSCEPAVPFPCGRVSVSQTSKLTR
UniProt P00740, sequence (P00740 227-461, chain 2 of 2): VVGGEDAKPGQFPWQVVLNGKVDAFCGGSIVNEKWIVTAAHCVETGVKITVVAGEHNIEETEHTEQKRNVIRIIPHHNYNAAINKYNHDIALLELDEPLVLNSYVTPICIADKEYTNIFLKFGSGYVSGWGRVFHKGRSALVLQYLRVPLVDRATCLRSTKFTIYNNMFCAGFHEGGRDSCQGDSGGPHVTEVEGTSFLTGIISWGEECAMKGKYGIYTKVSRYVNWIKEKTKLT

One may read the Kd as the constant that tells how readily two partners part at equilibrium. Lower therefore signals higher affinity. Turning to “human recombinant factor VIIIa (complex)”, the Kd in assay [1] stood at 310 nM; in assay [2], 1.5 nM.
